According to patent publication US20220211860A1, “PEPTIDE DERIVATIVES AND CONJUGATES THEREOF FOR TREATING CANCER” (priority 2019, published 2022):
“And” between values parts separate entries of the source, which are not always exact repeats. Equal values may be shown once.

Columns and labels:
[1] = In vitro stability (release of free MMAE, LC/MS), cell culture media; assay type: in vitro ADME; details: c-media, 1 μM, 37° C., 10 days
Experimental: (§1) FIG. 11: Stability of LHRHD-(mc-vc-PABC)-MMAE (i.e. LD5-mc-vc-PABC-MMAE) in human plasma, mouse plasma, and cell culture media (c-media). The stability was measured based on the presence of free MMAE detected in the samples by LC-MS at each time point relative to time 0. Error Bars are standard deviations (STDV), p>0.05 and n=9 (mean is calculated from samples in triplicate in 3 independent experiments).
(§2) The metabolic stability of LD5-(mc-vc-PABC)-MMAE was investigated in cell culture media (c-media), human and mouse plasma. An LC/MS method was developed to detect both free MMAE and the presence of any degraded species from the whole construct, LD5-(mc-vc-PABC)-MMAE. To evaluate the stability of the valine-citrulline linkage, LD5-(mc-vc-PABC)-MMAE at 1 μM was incubated in c-media, human and mouse plasma at 37° C. for a period of 10 days. Aliquots were taken at pre-determined time intervals (t=0, 1, 2, 4, 7, 10 days) and analysed by LC/MS for the release of free MMAE.

[2] = In vitro metabolic stability (release of free MMAE, LC/MS), mouse plasma; assay type: in vitro ADME; details: 1 μM, 37° C., 10 days
Experimental: as §1, §2

[3] = In vitro metabolic stability (release of free MMAE, LC/MS), human plasma; assay type: in vitro ADME; details: 1 μM, 37° C., 10 days
Experimental: as §1, §2

[4] = tested on: α-tubulin polymerisation; assay: α-tubulin immunostaining in TNBC and normal breast cells; assay type: cell-based; details: normal breast cells, 1 µM, 18 h
Experimental: FIGS. 8A and 8B: The effect of MMAE and LD5-me-vc-PABC-MMAE (LM) on α-tubulin polymerization. (A) MDA-MB-231 (TNBC cell model) and normal breast cells (HMEC and MCF-10A) were treated with free MMAE and LM at 1 μM and PBS (control) followed by immunostaining of α-tubulin with primary and secondary antibodies. The α-tubulin signals were detected by LEICA SPE2 confocal LSM. (B) The α-tubulin signal intensity was measured by Fiji J software in normal breast cells (HMEC and MCF-10A) and MDA-MB-231. ****p<0.0001 is the significance in the signal intensity in each cell line treated with PBS and LM in comparison to MMAE-treated cells. ####p<0.0001 is the significance of the α-tubulin signal intensity in MDA-MB-231 cells treated with LM in comparison to MCF-10A and HMEC cells. […] Statistical analysis was made in Prism by two-way ANOVA followed by Tukey's multiple comparisons test. Error bars are standard deviations (STDV), n=8 (3 independent repeats).
The intracellular effects of MMAE on α-tubulin polymerisation were examined using α-tubulin immunostaining in TNBC cells (MDA-MB-231) and normal breast cells (MCF-10A and HMEC) treated with MMAE and MMAE conjugated with LD5 (LD5-mc-vc-PABC-MMAE). TNBC cells and normal breast cells were fixed after incubating with […] of MMAE and LD5-mc-vc-PABC-MMAE for 18 h along with PBS as a control. […]

[5] = tested on: MDA-MB-231; assay: Receptor binding competitive assay (triptorelin pre-treatment, MTT); assay type: cell-based, human; details: MDA-MB-231 pre-treated with 100 µM of triptorelin (TRN) for 2 h
Experimental: FIGS. 5A and 5B: Receptor binding competitive assay. MDA-MB-231 was pre-treated with triptorelin (TRN) and LM (LD5-mc-vc-PABC-MMAE) then the MTT assay was performed. (A) The IC50 value (nM) was calculated by non-linear regression (curve fit) for PC-3 and MDA-MB-231 with and without pre-treatment with triptorelin. (B) The cell viability in TRN-LM was assessed in comparison to LM in MDA-MB-231 (TNBC cell line). The cytotoxic effects of LM is reversed after pre-treatment with triptorelin indicating a significant role of LHRH-Rs in the mechanism of action of LM. Two-way ANOVA was performed followed by Sidak's multiple comparisons test (***p<0.00001). Error bars are standard deviations (STDV), n=8 (3 independent repeats).
Receptor binding competitive assay was performed to examine the association of cytotoxicity with binding to LHRH-Rs. TNBC cells (MDA-MB-231) were pre-treated with 100 µM of triptorelin (TRN) for 2 h to block the LHRH-R. The significant cytotoxic effects of LD5-mc-vc-PABC-MMAE (LM) was reversed after pre-treatment with TRN (FIGS. 5A and 5B).

[6] = tested on: female NOD/SCID mice; assay: Phase II: repeat-dose MTD in mice; assay type: in vivo; details: for Body Weight: listed as LHRHD-(mc-vc-PABC)-MMAE, 10 mg/kg
Experimental: (§3) LD-5-(mc-vc-PABC)-MMAE (10 mg/kg; determined by the results by Phase I) was administered IV once weekly on days 1 and 8 to groups of 3 female NOD/SCID mice (23±3 g). […] Body weights were recorded pre-dose and on days 1, 4, 8, 12 and 15. The animals were observed and mortality noted daily after first compound administration for 15 days. Gross necropsy was performed on all animals without tissue collection.
(§4) Therefore, the MTD was not reached at this dose. With the corresponding ADCs bearing MMAE the MTD has been considerably lower.

[7] = Phase II: repeat-dose MTD in mice; assay type: in vivo; details: mouse, in vivo; female NOD/SCID mice, IV; MTD not reached at 10 mg/kg
Experimental: as §3, §4

[8] = tested on: female NOD/SCID mice; assay: Phase I: single-dose MTD in mice; assay type: in vivo; details: IV 10 mg/kg, 72 hr, individual animals, listed as LHRHD-(mc-vc-PABC)-MMAE

## CCNC(=O)[C@@H]1CCCN1C(=O)[C@H](CCCNC(=N)N)NC(=O)[C@H](CC(C)C)NC(=O)[C@@H](CCCCNC1CC(=O)N(CCCCCC(=O)N[C@H](C(=O)N[C@@H](CCCNC(N)=O)C(=O)Nc2ccc(COC(=O)N(C)[C@H](C(=O)N[C@H](C(=O)N(C)[C@@H]([C@@H](C)CC)[C@@H](CC(=O)N3CCC[C@H]3[C@H](OC)[C@@H](C)C(=O)N[C@H](C)[C@@H](O)c3ccccc3)OC)C(C)C)C(C)C)cc2)C(C)C)C1=O)NC(=O)[C@H](Cc1ccc(O)cc1)NC(=O)[C@H](CO)NC(=O)[C@H](Cc1c[nH]c2ccccc12)NC(=O)[C@H](Cc1c[nH]cn1)NC(=O)[C@@H]1CCC(=O)N1 (stereo partly drawn) [LD5-mc-vc-PABC-MMAE]
[1]
  total drug released as MMAE: less than 3%
[2]
  total drug released as MMAE: less than 5%
[3]
  total drug released as MMAE: less than 3%
[3]; listed as LHRHD-(mc-vc-PABC)-MMAE
  total drug released as MMAE: around 3%
[4]
  α-tubulin signal compared to MMAE treatment: significantly higher
[5]
  cytotoxic effects after pre-treatment with triptorelin: reversed
[6]; 10 mg/kg IV, after first and second administrations on Day 1 and 8
  adverse effects (acute toxic symptoms, autonomic effects): No marked adverse effects
[6]; IV 10 mg/kg on days 1 and 8, Day 1
  Mortality (death/test): 0/3
[6]; IV 10 mg/kg on days 1 and 8, Day 1, individual animals
  Body Weight: 22 g (2×) and 21 g
[6]; IV 10 mg/kg on days 1 and 8, Day 2
  Mortality (death/test): 0/3
[6]; IV 10 mg/kg on days 1 and 8, Day 3
  Mortality (death/test): 0/3
[6]; IV 10 mg/kg on days 1 and 8, Day 4
  Mortality (death/test): 0/3
[6]; IV 10 mg/kg on days 1 and 8, Day 4, individual animals
  Body Weight: 23 g (2×) and 22 g
[6]; IV 10 mg/kg on days 1 and 8, Day 5
  Mortality (death/test): 0/3
[6]; IV 10 mg/kg on days 1 and 8, Day 6
  Mortality (death/test): 0/3
[6]; IV 10 mg/kg on days 1 and 8, Day 7
  Mortality (death/test): 0/3
[6]; IV 10 mg/kg on days 1 and 8, Day 8
  Mortality (death/test): 0/3
[6]; IV 10 mg/kg on days 1 and 8, Day 8, individual animals
  Body Weight: 23 g (2×) and 22 g
[6]; IV 10 mg/kg on days 1 and 8, Day 9
  Mortality (death/test): 0/3
[6]; IV 10 mg/kg on days 1 and 8, Day 10
  Mortality (death/test): 0/3
[6]; IV 10 mg/kg on days 1 and 8, Day 11
  Mortality (death/test): 0/3
[6]; IV 10 mg/kg on days 1 and 8, Day 12
  Mortality (death/test): 0/3
[6]; IV 10 mg/kg on days 1 and 8, Day 12, individual animals
  Body Weight: 24 g (2×) and 23 g
[6]; IV 10 mg/kg on days 1 and 8, Day 13
  Mortality (death/test): 0/3
[6]; IV 10 mg/kg on days 1 and 8, Day 14
  Mortality (death/test): 0/3
[6]; IV 10 mg/kg on days 1 and 8, Day 15
  Mortality (death/test): 0/3
[6]; IV 10 mg/kg on days 1 and 8, Day 15, individual animals
  Body Weight: 25 g (2×) and 24 g
[6]; both phases
  gross necropsy: No abnormality was found
[7]
  MTD: > 10 mg/kg
[8]
  Body Weight: 21 g and 20 g (2×)
